From paper PMC5758917 (Nucleic Acids Research, 2017) come the findings set out here.

For this assay, the target named is T1, GST-E1 (HPV 11 E1 fused to GST) (human papillomavirus type 11, UniProt P04014 1-649).
T1 sequence: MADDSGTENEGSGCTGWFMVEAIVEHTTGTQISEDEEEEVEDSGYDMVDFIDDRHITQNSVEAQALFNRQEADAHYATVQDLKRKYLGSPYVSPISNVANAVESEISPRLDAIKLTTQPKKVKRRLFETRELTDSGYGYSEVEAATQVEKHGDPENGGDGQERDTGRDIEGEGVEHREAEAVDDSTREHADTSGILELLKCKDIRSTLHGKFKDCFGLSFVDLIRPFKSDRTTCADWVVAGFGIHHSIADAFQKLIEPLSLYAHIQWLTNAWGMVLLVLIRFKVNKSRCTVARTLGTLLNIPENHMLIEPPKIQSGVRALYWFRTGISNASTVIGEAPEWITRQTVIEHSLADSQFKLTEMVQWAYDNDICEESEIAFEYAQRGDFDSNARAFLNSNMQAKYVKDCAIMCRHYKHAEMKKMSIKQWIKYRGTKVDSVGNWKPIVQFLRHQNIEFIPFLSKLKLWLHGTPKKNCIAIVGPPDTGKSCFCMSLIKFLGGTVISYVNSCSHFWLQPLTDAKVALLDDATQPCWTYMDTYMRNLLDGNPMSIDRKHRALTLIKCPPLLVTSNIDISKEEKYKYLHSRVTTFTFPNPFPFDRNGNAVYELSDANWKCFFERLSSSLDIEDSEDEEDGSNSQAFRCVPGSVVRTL
The assay is described as follows: far-Western, overlay or dot blot.

B1: p50 subunit of pol δ (natural protein)
chain: not shown
On to B1, for which the binding result is recorded as “binds”.
